“Also recorded” adds a separate entry of the source.
Assays:
thymocytes = experiment: Proliferation of anti-CD3 activated thymocytes in serum-free ITLB medium; assay type: cell-based, BALB/c mouse; settings: for ability of cytokine to replace retinol: absence of retinol; for growth-stimulating effect, anti-CD3, no Retinol / growth-stimulating effect, anti-CD3, 10^-6 M Retinol: 3 days, IL-1 10, IL-2 2, IL-4 5, IL-6 5, IFN-gamma 40, TNF-alpha 12, IL-2 + IL-4 2/5 U/ml; for growth-stimulating effect, anti-CD3, 10^-6 M Retinol: with 10^-6 M retinol (head), Retinol: stimulating agent none
Method: FIG. 14A: Purified BALB/c thymocytes were activated with immobilized anti-CD3e antibody and cultivated for four days in ITLB medium with or without retinol (3×10^-6 M), 14HRR (6×10^-7 M) (fresh 14HRR was added every 12 hours), human serum (3%) or FCS (10%) at the cellular densities shown. Proliferation was assayed by tritiated thymidine incorporation into cellular DNA.
FIG. 14B: BALB/c thymocytes (10^6 /ml) were added to microtiter plates coated with titrated amounts of anti-CD3e antibody with […] retinol or without, as indicated. Proliferation was measured in hexaduplicate wells on day 3 by ^3 H thymidine incorporation assay.
Purified thymocytes (5×10^5 cells/well) were stimulated by TCR crosslinking with immobilized anti-CD3e antibody (FIG. 15A) or 0.4 μg/ml Con A (FIG. 15B) in serum-free ITLB medium. The indicated amounts of retinoids were added either once at the beginning of the experiment (marked as "1×") or every 12 hours thereafter (marked as "6×"). DNA synthesis was measured after 72 hours by tritiated thymidine uptake as described.
Purified thymocytes (10^5 cells/well) were activated with anti-CD3 antibody in ITLB medium with or without retinol (3×10^-6 M), 14HRR (6×10^-7, added every 12 hours or human serum (3%)). DNA synthesis was measured daily by a 4 hour pulse of tritiated thymidine.
Thymocytes (5×10^4 /well) were activated by immobilized anti-CD3 mAb in medium ITLB. Retinol (2×10^-6 M) was added at initiation of culture, or delayed by 12 hours and 24 hours, respectively, or omitted altogether. ^3 H thymidine pulses of 4 hours were used to measure DNA synthesis of hexaduplicate wells.
Thymuses of 3 to 6-week-old BALB/c mice were teased in serum-free RPMI medium supplemented with 1% BSA, 10^-6 M linoleic acid and antibiotics. Depletion of accessory cells was achieved by two cycles of complement-dependent lysis with a mixture of anti-IA^d (5 μg/ml) and anti-IE^d (1:500 diluted ascites fluid). Briefly, cells were incubated on ice for 30 minutes with Ia antibodies, spun down, resuspended in 1:40 diluted rabbit complement, and incubated at 37° C. for 45 minutes. Incubations and two subsequent washes were carried out with RPMI medium containing 1% BSA. Cell viability was evaluated by trypan blue dye exclusion. To determine the extent of depletion of accessory cells, samples were stained with FITC-conjugated anti-Fc receptor antibody and analyzed by flow cytometry on a FACScan instrument (Becton Dickinson).
Cells were cultured in serum-free medium, referred to as ITLB, containing RPMI 1640 supplemented with 8×10^-7 M insulin (5 μg/ml), 7×10^-8 M transferrin (5 μg/ml), 2×10^-6 M linoleic acid, 2×10^-6 M delipidated BSA (0.12 mg/ml), 2 mM L-glutamine, 1 mM sodium pyruvate and antibiotics. They were seeded into 96-well flat-bottom plates at varying cellular densities in a final volume of 100 μl. In control experiments, cells were cultured in medium containing 10% FCS or 3% human serum and 5×10^-5 M 2ME. T cells and thymocytes were activated with immobilized, purified anti-mAb CD3e or by the addition of Con A in the presence or absence of different concentrations of retinoids. Unless indicated otherwise, retinoids were replenished every 12 hours to maintain a reasonably constant concentration of these labile compounds in culture. […] Cultures were carried out in duplicate. Plates were incubated at 37° C. in a humidified 5% CO2 atmosphere. Cellular proliferation was determined by [^3 H] thymidine uptake (0.5 uCi/well; New England Nuclear, Boston, Mass.) after the incubation times indicated for each experiment with a 4 hour labeling pulse.

T cells = experiment: T cell activation and proliferation, retinol cofactor requirement; assay type: cell-based, murine
Method: They were seeded into 96-well flat-bottom plates at varying cellular densities in a final volume of 100 μl. In control experiments, cells were cultured in medium containing 10% FCS or 3% human serum and 5×10^-5 M 2ME. […] Cultures were carried out in duplicate. Plates were incubated at 37° C. in a humidified 5% CO2 atmosphere. Cellular proliferation was determined by [^3 H] thymidine uptake (0.5 uCi/well; New England Nuclear, Boston, Mass.) after the incubation times indicated for each experiment with a 4 hour labeling pulse. Cells were harvested onto glass filter and [^3 H]TdR incorporation was determined by liquid scintillation counting. The data presented are the means of duplicate or six replicate cultures. The restriction to duplicate measurements was necessary to conserve scarce 14HRR. […] Each experiment was repeated at least twice.

5/2 cells = assay type: in vitro ADME, human
Method: 5/2 cells (10^6 cells in 10 ml HB 101 medium) were incubated with all-trans-[^3 H] retinol (10 uCe/ml). After 24 hours, retinoids were extracted from the washed cell pellet and unlabeled marker retinoids were added. The crude extract was loaded on an analytical reversed-phase C-18 column. Retinoids were eluted with the shown linear gradient of water/methanol/chloroform. The flow rate was 0.5 ml/min. DPM were determined with an on line scintillation counter. Reference retinoids were the all-trans forms of 0: 3,4-didehydroretinoic acid, 1: all-trans-retinoic acid, 2: 3,4-didehydroretinol, 3: retinol, 4: retinyl linoleate, 5: retinyl oleate, 6: retinyl palmitate. Shaded area corresponds to P3. Cross-hatched area corresponds to P1.
Lymphoblastoid 5/2 cells grown in the presence of 10^-6 M retinol were spiked with ^3 H-labeled retinol. After 16 hours the cell pellet was delipidated according to the method of McLean et al. and separated on a reversed phase C-18 HPLC column (FIG. 7). […] Three peaks, P1, P2 and P3, could not be immediately identified. One peak eluting at 36-39 minutes (corresponding 83% methanol 7% water) provisionally called P3, but now known as 14HRR, was unusual because unlike P1 eluting at 31-34 minutes, its relative amount increased when the retinol concentration was lowered or when retinol was given to the cells bound to RBP. […] Since HeLa cells contain 14HRR, these cells were also used. 50 ml of packed HeLa cells (10^10 cells) yielded 25 OD348nmunits of pure P3 after the following sequence of steps: 1. Growth in the presence of 10^-5 M retinol; 2. Extraction of cell pellet according to McClean et al. (13); 3. Preparative C-18 HPLC column eluted with a water/methanol gradient; 4. semipreparative C18 HPLC column eluted with a water/acetonitrile gradient; 5. analytical C4 column eluted with a water/methanol gradient.

CC1=C(/C=C/C(C)=C/C=C/C(C)=C\CO)C(C)(C)CCC1 [13-cis-retinol]
effectiveness relative to retinol (thymocytes; anti-CD3, 14HRR at 12 hour intervals): equally effective as all-trans retinol | ability to substitute for retinol in T cell activation (words) (T cells): can substitute for retinal

CC1=C(/C=C/C(C)=C/C=C/C(C)=C/CO)C(C)(C)CC=C1 [3,4-didehydroretinol]
detection as metabolite of retinol (5/2 cells): not detectable

TNF-alpha
ability of cytokine to replace retinol (thymocytes): none of the interleukins tested (IL-1, IL-2, IL-4 and IL-6) nor TNF-alpha are substitutes for retinol | ability of cytokine to replace retinol (thymocytes; listed as TNF-α): does not | growth-stimulating effect, anti-CD3, no Retinol (thymocytes): 464 ± 95 CPM | growth-stimulating effect, anti-CD3, 10^-6 M Retinol (thymocytes): 122,905 ± 11,577 CPM | ability to substitute for retinol in T cell activation (words) (T cells): cannot be satisfied by retinoic acid or interleukins 1, 2, 4 and 6, and TNF-alpha

IL-6: hrIL-6
ability of cytokine to replace retinol (thymocytes): None of the four interleukins, IL-1, IL-2, IL-4 or IL-6, was capable of overcoming the requirement for retinal; also recorded: none of the interleukins tested (IL-1, IL-2, IL-4 and IL-6) nor TNF-alpha are substitutes for retinol | growth-stimulating effect, anti-CD3, no Retinol (thymocytes): 1,005 ± 815 CPM | growth-stimulating effect, anti-CD3, 10^-6 M Retinol (thymocytes): 130,590 ± 25,803 CPM

CC1=C(/C=C/C(C)=C/C=C/C(C)=C/C(=O)O)C(C)(C)CC=C1 [3,4-didehydroretinol acid, 3,4-didehydroretinoic acid]
detection as metabolite of retinol (5/2 cells): not detectable

B1: IFN-gamma: mouse recombinant IFN-gamma (protein, UniProt P01580 23-155, looked up)
Interferon gamma: HGTVIESLESLNNYFNSSGIDVEEKSLFLDIWRNWQKDGDMKILQSQIISFYLRLFEVLKDNQAISNNISVIESHLITTFFSNSKAKKDAFMSIAKFEVNNPQVQRQAFNELIRVVHQLLPESSLRKRKRSRC
ability of cytokine to replace retinol (thymocytes): can circumvent the retinol requirement and initiate durable proliferation in the absence of retinol or 14HRR | ability of cytokine to replace retinol (thymocytes; listed as interferon-gamma): can sustain thymocyte proliferation in the absence of retinol; also recorded: quite efficient in anti-CD3-mediated activation in the absence of retinol | growth-stimulating effect, anti-CD3, no Retinol (thymocytes): 81,876 ± 11,868 CPM | growth-stimulating effect, anti-CD3, 10^-6 M Retinol (thymocytes): 220,359 ± 27,726 CPM | effect of cytokine combined with retinol (thymocytes): strong additive effects | effect of cytokine combined with retinol (thymocytes; listed as Interferon-gamma): clear additive effect with retinol | ability to substitute for retinol in T cell activation (words) (T cells): can substitute for retinol

B2: IL-1: Human recombinant IL-1-α (protein, UniProt P01583 113-271, looked up)
Interleukin-1 alpha: SAPFSFLSNVKYNFMRIIKYEFILNDALNQSIIRANDQYLTAAALHNLDEAVKFDMGAYKSSKDDAKITVILRISKTQLYVTAQDEDQPVLLKEMPEIPKTITGSETNLLFFWETHGTKNYFTSVAHPNLFIATKQDYWVCLAGGPPSITDFQILENQA
ability of cytokine to replace retinol (thymocytes): None of the four interleukins, IL-1, IL-2, IL-4 or IL-6, was capable of overcoming the requirement for retinal; also recorded: none of the interleukins tested (IL-1, IL-2, IL-4 and IL-6) nor TNF-alpha are substitutes for retinol | growth-stimulating effect, anti-CD3, no Retinol (thymocytes): 959 ± 30 CPM | growth-stimulating effect, anti-CD3, 10^-6 M Retinol (thymocytes): 118,924 ± 3,051 CPM

B3: IL-4: murine rIL-4 (protein, UniProt P07750 21-140, looked up)
Interleukin-4: HIHGCDKNHLREIIGILNEVTGEGTPCTEMDVPNVLTATKNTTESELVCRASKVLRIFYLKHGKTPCLKKNSSVLMELQRLFRAFRCLDSSISCTMNESKSTSLKDFLESLKSIMQMDYS
ability of cytokine to replace retinol (thymocytes): None of the four interleukins, IL-1, IL-2, IL-4 or IL-6, was capable of overcoming the requirement for retinal; also recorded: none of the interleukins tested (IL-1, IL-2, IL-4 and IL-6) nor TNF-alpha are substitutes for retinol | growth-stimulating effect, anti-CD3, no Retinol (thymocytes): 991 ± 105 CPM | growth-stimulating effect, anti-CD3, 10^-6 M Retinol (thymocytes): 115,849 ± 20,630 CPM
